The record followed here is PMC9332573.

In assay [1] the target is C157S mutant of hDHHC3-Δ35 (hDHHS3-Δ35), C-terminal Twin-Strep tagged (human) (UniProt Q9NYG2). The assay can be described thus: cryo-EM 2D classification; hDHHS3-Δ35 in GDN micelles from SEC peak 1; 200 kV Talos Arctica; 2D class averages with RELION 3; no 3D reconstruction.
Assay [2] shares this target. In words: SDS-PAGE; purified hDHHS3-Δ35 on SDS-PAGE; dimeric band at ≈50 kDa (Figure S5A).

Broadly, the stoichiometry N is the number of molecules, sites or subunits per partner or assembly. On to “C157S mutant of hDHHC3-Δ35 (hDHHS3-Δ35), C-terminal Twin-Strep tagged (from UniProt Q9NYG2-2 36-299) (enzyme)”, for which, in assay [1], the stoichiometry N was found to be 2. The same substance gave an oligomeric state (number of subunits) in assay [2] of 2.
